This note sets out measurements from US20200165335A1 (Seagen, published 2020).

T1: human LIV-1 (human, UniProt Q13433 29-755)
T1 construct: also called hLIV-1; Q13433
T1 sequence: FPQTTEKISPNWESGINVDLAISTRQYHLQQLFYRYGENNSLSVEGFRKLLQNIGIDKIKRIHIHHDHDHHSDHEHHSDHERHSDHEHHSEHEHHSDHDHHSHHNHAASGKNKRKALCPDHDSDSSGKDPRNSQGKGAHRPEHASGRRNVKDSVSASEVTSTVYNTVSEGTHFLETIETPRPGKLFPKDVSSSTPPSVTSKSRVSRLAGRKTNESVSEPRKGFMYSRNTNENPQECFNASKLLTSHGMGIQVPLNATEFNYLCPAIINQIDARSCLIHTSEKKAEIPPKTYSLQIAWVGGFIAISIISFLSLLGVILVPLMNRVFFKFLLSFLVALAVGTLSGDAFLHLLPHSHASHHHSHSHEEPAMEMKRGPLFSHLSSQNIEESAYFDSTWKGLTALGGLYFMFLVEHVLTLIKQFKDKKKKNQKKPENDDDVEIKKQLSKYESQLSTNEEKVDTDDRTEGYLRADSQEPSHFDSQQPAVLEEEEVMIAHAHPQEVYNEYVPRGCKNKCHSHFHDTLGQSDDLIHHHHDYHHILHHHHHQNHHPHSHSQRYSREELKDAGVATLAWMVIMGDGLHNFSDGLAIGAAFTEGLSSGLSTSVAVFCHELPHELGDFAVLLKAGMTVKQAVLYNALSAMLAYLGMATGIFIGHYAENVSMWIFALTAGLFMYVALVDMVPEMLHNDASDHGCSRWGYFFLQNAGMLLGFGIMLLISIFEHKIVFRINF

B1: humanized BR2-14a antibody HCLE (antibody, V domains shown)
VH: QVQLVQSGAEVKKPGASVKVSCKASGYTFTDYYMHWVRQAPGQGLEWMGWIDPENGDTEYAPTFQGKATMTADTSISTAYMELSRLRSDDTAVYYCARHDAHYGTWFAYWGQGTLVTVSS
VL: DVVMTQSPLSLPVTLGQPASISCRSSQSIIRNDGNTYLEWFQQRPGQSPRLLIYRVSNRFSGVPDRFSGSGSGTDFTLKISRVEAEDVGVYYCFQGSHVPYTFGGGTKVEIKR
notes: also called hLIV-1 HC + hLIV-1 LE
B2: humanized BR2-14a antibody HCLC (antibody, V domains shown)
VH: QVQLVQSGAEVKKPGASVKVSCKASGYTFTDYYMHWVRQAPGQGLEWMGWIDPENGDTEYAPTFQGKATMTADTSISTAYMELSRLRSDDTAVYYCARHDAHYGTWFAYWGQGTLVTVSS
VL: DVVMTQSPLSLPVTLGQPASISCRSSQSIIRNDGNTYLEWFLQRPGQSPRRLIYRVSNRFSGVPDRFSGSGSGTDFTLKISRVEAEDVGVYYCFQGSHVPYTFGGGTKVEIKR
notes: also called hLIV-1 HC + hLIV-1 LC
B3: humanized BR2-14a antibody HDLA (antibody, V domains shown)
VH: QVQLVQSGAEVKKPGASVKVSCKASGFTFTDYYMHWVRQAPGQGLEWMGWIDPENGDTEYAPTFQGRVTMTRDTSISTAYMELSRLRSDDTAVYYCNVHDAHYGTWFAYWGQGTLVTVSS
VL: DVVMTQSPLSLPVTLGQPASISCRSSQSIIRNDGNTYLEWFQQRPGQSPRRLIYRVSNRFSGVPDRFSGSGSGTDFTLKISRVEAEDVGVYYCFQGSHVPYTFGGGTKVEIKR
notes: also called hLIV-1 HD + hLIV-1 LA
B4: humanized BR2-14a antibody HBLE (antibody, V domains shown)
VH: QVQLVQSGAEVKKPGASVKVSCKASGYTIEDYYMHWVRQAPGQGLEWMGWIDPENGDTEYAPTFQGRVTMTRDTSINTAYMELSRLRSDDTAVYYCARHDAHYGTWFAYWGQGTLVTVSS
VL: DVVMTQSPLSLPVTLGQPASISCRSSQSIIRNDGNTYLEWFQQRPGQSPRLLIYRVSNRFSGVPDRFSGSGSGTDFTLKISRVEAEDVGVYYCFQGSHVPYTFGGGTKVEIKR
notes: also called hLIV-1 HB + hLIV-1 LE
B5: humanized BR2-14a antibody HELF (antibody, V domains shown)
VH: QVQLVQSGAEVKKPGASVKVSCKASGFNIEDYYMHWVRQAPGQGLEWIGWIDPENGDTEYAPTFQGKATMTADTSINTAYMELSRLRSDDTAVYYCNVHDAHYGTWFAYWGQGTLVTVSS
VL: DVVMTQSPLSLPVTLGQPASISCRSSQSIIRNDGNTYLEWYLQKPGQSPKLLIYRVSNRFSGVPDRFSGSGSGTDFTLKISRVEAEDVGVYYCFQGSHVPYTFGGGTKVEIKR
notes: also called hLIV-1 HE + hLIV-1 LF
B6: humanized BR2-14a antibody HDLC (antibody, V domains shown)
VH: QVQLVQSGAEVKKPGASVKVSCKASGFTFTDYYMHWVRQAPGQGLEWMGWIDPENGDTEYAPTFQGRVTMTRDTSISTAYMELSRLRSDDTAVYYCNVHDAHYGTWFAYWGQGTLVTVSS
VL: DVVMTQSPLSLPVTLGQPASISCRSSQSIIRNDGNTYLEWFLQRPGQSPRRLIYRVSNRFSGVPDRFSGSGSGTDFTLKISRVEAEDVGVYYCFQGSHVPYTFGGGTKVEIKR
notes: also called hLIV-1 HD + hLIV-1 LC
B7: humanized BR2-14a antibody HCLA (antibody, V domains shown)
VH: QVQLVQSGAEVKKPGASVKVSCKASGYTFTDYYMHWVRQAPGQGLEWMGWIDPENGDTEYAPTFQGKATMTADTSISTAYMELSRLRSDDTAVYYCARHDAHYGTWFAYWGQGTLVTVSS
VL: DVVMTQSPLSLPVTLGQPASISCRSSQSIIRNDGNTYLEWFQQRPGQSPRRLIYRVSNRFSGVPDRFSGSGSGTDFTLKISRVEAEDVGVYYCFQGSHVPYTFGGGTKVEIKR
notes: also called hLIV-1 HC + hLIV-1 LA
B8: humanized BR2-14a antibody HDLE (antibody, V domains shown)
VH: QVQLVQSGAEVKKPGASVKVSCKASGFTFTDYYMHWVRQAPGQGLEWMGWIDPENGDTEYAPTFQGRVTMTRDTSISTAYMELSRLRSDDTAVYYCNVHDAHYGTWFAYWGQGTLVTVSS
VL: DVVMTQSPLSLPVTLGQPASISCRSSQSIIRNDGNTYLEWFQQRPGQSPRLLIYRVSNRFSGVPDRFSGSGSGTDFTLKISRVEAEDVGVYYCFQGSHVPYTFGGGTKVEIKR
notes: also called hLIV-1 HD + hLIV-1 LE
B9: humanized BR2-14a antibody HELD (antibody, V domains shown)
VH: QVQLVQSGAEVKKPGASVKVSCKASGFNIEDYYMHWVRQAPGQGLEWIGWIDPENGDTEYAPTFQGKATMTADTSINTAYMELSRLRSDDTAVYYCNVHDAHYGTWFAYWGQGTLVTVSS
VL: DVVMTQSPLSLPVTLGQPASISCRSSQSIIRNDGNTYLEWFQQRPGQSPKRLIYRVSNRFSGVPDRFSGSGSGTDFTLKISRVEAEDVGVYYCFQGSHVPYTFGGGTKVEIKR
notes: also called hLIV-1 HE + hLIV-1 LD
B10: humanized BR2-14a antibody HELC (antibody, V domains shown)
VH: QVQLVQSGAEVKKPGASVKVSCKASGFNIEDYYMHWVRQAPGQGLEWIGWIDPENGDTEYAPTFQGKATMTADTSINTAYMELSRLRSDDTAVYYCNVHDAHYGTWFAYWGQGTLVTVSS
VL: DVVMTQSPLSLPVTLGQPASISCRSSQSIIRNDGNTYLEWFLQRPGQSPRRLIYRVSNRFSGVPDRFSGSGSGTDFTLKISRVEAEDVGVYYCFQGSHVPYTFGGGTKVEIKR
notes: also called hLIV-1 HE + hLIV-1 LC
B11: humanized BR2-22a antibody HALF (antibody, V domains shown)
VH: QVQLVQSGAEVKKPGASVKVSCKASGYTFTDYYMHWVRQAPGQGLEWMGWIDPENGDTEYGPKFQGRVTMTRDTSISTAYMELSRLRSDDTAVYYCARHNAHYGTWFAYWGQGTLVTVSS
VL: DVVMTQSPLSLPVTLGQPASISCRSSQSLLHSSGNTYLEWYLQRPGQSPKPLIYKISTRFSGVPDRFSGSGSGTDFTLKISRVEAEDVGVYYCFQGSHVPYTFGGGTKVEIKR
notes: also called hLIV-22 HA + hLIV-22 LF
B12: humanized BR2-22a antibody HCLD (antibody, V domains shown)
VH: QVQLVQSGAEVKKPGASVKVSCKASGYTFTDYYMHWVRQAPGQGLEWMGWIDPENGDTEYGPKFQGKATMTADTSISTAYMELSRLRSDDTAVYYCARHNAHYGTWFAYWGQGTLVTVSS
VL: DVVMTQSPLSLPVTLGQPASISCRSSQSLLHSSGNTYLEWFQQRPGQSPKRLIYKISTRFSGVPDRFSGSGSGTDFTLKISRVEAEDVGVYYCFQGSHVPYTFGGGTKVEIKR
notes: also called hLIV-22 HC + hLIV-22 LD
B13: humanized BR2-22a antibody HDLF (antibody, V domains shown)
VH: QVQLVQSGAEVKKPGASVKVSCKASGLTFTDYYMHWVRQAPGQGLEWMGWIDPENGDTEYGPKFQGRVTMTRDTSISTAYMELSRLRSDDTAVYYCTVHNAHYGTWFAYWGQGTLVTVSS
VL: DVVMTQSPLSLPVTLGQPASISCRSSQSLLHSSGNTYLEWYLQRPGQSPKPLIYKISTRFSGVPDRFSGSGSGTDFTLKISRVEAEDVGVYYCFQGSHVPYTFGGGTKVEIKR
notes: also called hLIV-22 HD + hLIV-22 LF
B14: humanized BR2-22a antibody HBLF (antibody, V domains shown)
VH: QVQLVQSGAEVKKPGASVKVSCKASGYTIEDYYMHWVRQAPGQGLEWMGWIDPENGDTEYGPKFQGRVTMTRDTSINTAYMELSRLRSDDTAVYYCARHNAHYGTWFAYWGQGTLVTVSS
VL: DVVMTQSPLSLPVTLGQPASISCRSSQSLLHSSGNTYLEWYLQRPGQSPKPLIYKISTRFSGVPDRFSGSGSGTDFTLKISRVEAEDVGVYYCFQGSHVPYTFGGGTKVEIKR
notes: also called hLIV-22 HB + hLIV-22 LF
B15: humanized BR2-22a antibody HCLC (antibody, V domains shown)
VH: QVQLVQSGAEVKKPGASVKVSCKASGYTFTDYYMHWVRQAPGQGLEWMGWIDPENGDTEYGPKFQGKATMTADTSISTAYMELSRLRSDDTAVYYCARHNAHYGTWFAYWGQGTLVTVSS
VL: DVVMTQSPLSLPVTLGQPASISCRSSQSLLHSSGNTYLEWFLQRPGQSPRRLIYKISTRFSGVPDRFSGSGSGTDFTLKISRVEAEDVGVYYCFQGSHVPYTFGGGTKVEIKR
notes: also called hLIV-22 HC + hLIV-22 LC
B16: humanized BR2-22a antibody HBLB (antibody, V domains shown)
VH: QVQLVQSGAEVKKPGASVKVSCKASGYTIEDYYMHWVRQAPGQGLEWMGWIDPENGDTEYGPKFQGRVTMTRDTSINTAYMELSRLRSDDTAVYYCARHNAHYGTWFAYWGQGTLVTVSS
VL: DVVMTQSPLSLPVTLGQPASISCRSSQSLLHSSGNTYLEWYQQRPGQSPRRLIYKISTRFSGVPDRFSGSGSGTDFTLKISRVEAEDVGVYYCFQGSHVPYTFGGGTKVEIKR
notes: Not the same molecule as HBLB of the BR2-14a series (hLIV14); also called hLIV-22 HB + hLIV-22 LB

The first test addresses T1, human LIV-1. As to the kind of experiment: competition flow cytometry, CHO cells expressing human LIV-1, vs 5 nM AF647-labelled BR2-14a. As for the experimental part: 1×10⁵ CHO cells expressing recombinant human LIV-1 in PBS/BSA were aliquoted into each well of a 96-well v-bottom plates on ice. […] Cells were pelleted and washed 3 times with PBS/BSA. The cells were pelleted and resuspended in 125 μL of PBS/BSA. Fluorescence was analyzed by flow cytometry, using percent of saturated fluorescent signal to determine percent labeled murine LIV-1 mAb bound and to subsequently extrapolate the EC50 by fitting the data to a sigmoidal dose-response curve with variable slope.
(In general: In flow cytometry, cells or beads pass a laser one at a time.)
B1: the binding result was “no binding (tested: 0.038 nM to 600 nM tested)”.

For the molecule B2, the binding result is reported as “no binding (tested: 0.038 nM to 600 nM tested)”.

Take B3: the binding result is given as “no binding (tested: 0.038 nM to 600 nM tested)”.

As to B4, the binding result is recorded as “no binding (tested: 0.038 nM to 600 nM tested)”.

On to B5, for which a half-maximal response (EC50) required 1.5 mg/L.

As to B6, the binding result was “no binding (tested: 0.038 nM to 600 nM tested)”.

In the case of B7, the binding result is “no binding (tested: 0.038 nM to 600 nM tested)”.

For the molecule B8, the binding result is reported as “no binding (tested: 0.038 nM to 600 nM tested)”.

Turning to B9, the EC50 (in general, the concentration giving half of the maximal effect) amounted to 24.2 mg/L.

On to B10, for which the binding result is reported as “no binding (tested: 0.038 nM to 600 nM tested)”.

The target of another test is T1, human LIV-1. As to the kind of experiment: competition flow cytometry, CHO cells expressing recombinant LIV-1, vs 5 nM AF647-labelled BR2-22a. As for the experimental part: 1×10⁵ CHO cells expressing recombinant LIV-1 in PBS were aliquoted into each well of a 96-well v-bottom plates on ice. […] Cells were pelleted and washed 3 times with PBS. The cells were then pelleted and resuspended in 125 μL of PBS/BSA. Fluorescence was analyzed by flow cytometery, using percent of saturated fluorescent signal to determine percent labeled humanized BR2-22a antibody bound and to subsequently extrapolate the EC50 by fitting the data to a sigmoidal dose-response curve with variable slope.
All permutations of these five heavy chains and six light chains were then tested in a competition assay compared with BR2-22a (see FIG. 17).
Consider B11, for which the EC50 worked out at 33.2 mg/L.

With B12, the binding result was “no binding (tested: 0.038 nM to 600 nM tested)”.

As to B13, the EC50 turned out to be 14.4 mg/L.

Regarding B14, the EC50 worked out at 6.5 mg/L.

On to B15, for which the binding result was “no binding (tested: 0.038 nM to 600 nM tested)”.

Take B16: the half-maximal effective concentration (EC50) was found to be 4.9 mg/L.
